Holding throughout (assay): cell-based or functional assay
Assay [1] concerns the target spike (SARS-CoV-2, BA.2) (SARS-CoV-2).
Assay [2] concerns the target spike (SARS-CoV-2, B.1.617.2, Delta) (SARS-CoV-2).
Assay [3] concerns the target spike (SARS-CoV-2, BQ.1.1) (SARS-CoV-2).
In assay [4] the target is spike (SARS-CoV-2, XBB.1.5) (SARS-CoV-2).
Assay [5] has as its target spike (SARS-CoV-2, B.1.617.2, Delta) (SARS-CoV-2). The source holds these as a separate data set.
Assay [6] has as its target spike (SARS-CoV-2, BQ.1.1) (SARS-CoV-2). The source holds these as a separate data set.
Assay [7] concerns the target spike (SARS-CoV-2, XBB.1.5) (SARS-CoV-2). This is another data set of the same source.
Assay [8] addresses spike (SARS-CoV-2, B.1.617.2, Delta) (SARS-CoV-2). This is another data set of the same source.
The target of assay [9] is spike (SARS-CoV-2, BQ.1.1) (SARS-CoV-2). This is another data set of the same source.
Assay [10] deals with spike (SARS-CoV-2, XBB.1.5) (SARS-CoV-2). This is another data set of the same source.
Assay [11] has as its target spike (SARS-CoV-2, B.1.617.2, Delta) (SARS-CoV-2). This is another data set of the same source.
Assay [12] deals with spike (SARS-CoV-2, BQ.1.1) (SARS-CoV-2). The source holds these as a separate data set.
Assay [13] has as its target spike (SARS-CoV-2, XBB.1.5) (SARS-CoV-2). The source holds these as a separate data set.

sotrovimab VH/VL-huIgG1-LS (antibody) displayed an EC50, pseudovirus neutralization, Vero E6 in assay [1] of 0.851 µg/mL. For the same substance, the figures for the EC50, pseudovirus neutralization, Vero E6, with isotype in [2], in assay [3] and in [4] were 0.0079 µg/mL, 1.2 µg/mL and 0.17 µg/mL, respectively. The values for the EC80, pseudovirus neutralization, Vero E6, with isotype in [5], in [6] and in assay [7] were 0.042 µg/mL, 4.4 µg/mL and 0.68 µg/mL, respectively. The EC90, pseudovirus neutralization, Vero E6, with isotype in assay [8] is 0.11 µg/mL; in [9] it was 9.6 µg/mL; in assay [10], 1.5 µg/mL. In addition, the Emax, pseudovirus neutralization, Vero E6, with isotype (% neutralization) came out at 96.9 in assay [11], 71.9 in assay [12] and 93.4 in [13].

Values taken from patent publication US20230357367A1.
